According to article doi:10.1101/683052:

Target: dynein/ dynactin/ BicD2-S complex (human | human (endogenous in HEK293-T)) (UniProt Q14204)
Assay: single-molecule TIRF colocalisation on microtubules

dynein/ dynactin/ BicD2-S complex (human | human (endogenous in HEK293-T)), sequence (Q14204 whole entry, looked up, one chain of several): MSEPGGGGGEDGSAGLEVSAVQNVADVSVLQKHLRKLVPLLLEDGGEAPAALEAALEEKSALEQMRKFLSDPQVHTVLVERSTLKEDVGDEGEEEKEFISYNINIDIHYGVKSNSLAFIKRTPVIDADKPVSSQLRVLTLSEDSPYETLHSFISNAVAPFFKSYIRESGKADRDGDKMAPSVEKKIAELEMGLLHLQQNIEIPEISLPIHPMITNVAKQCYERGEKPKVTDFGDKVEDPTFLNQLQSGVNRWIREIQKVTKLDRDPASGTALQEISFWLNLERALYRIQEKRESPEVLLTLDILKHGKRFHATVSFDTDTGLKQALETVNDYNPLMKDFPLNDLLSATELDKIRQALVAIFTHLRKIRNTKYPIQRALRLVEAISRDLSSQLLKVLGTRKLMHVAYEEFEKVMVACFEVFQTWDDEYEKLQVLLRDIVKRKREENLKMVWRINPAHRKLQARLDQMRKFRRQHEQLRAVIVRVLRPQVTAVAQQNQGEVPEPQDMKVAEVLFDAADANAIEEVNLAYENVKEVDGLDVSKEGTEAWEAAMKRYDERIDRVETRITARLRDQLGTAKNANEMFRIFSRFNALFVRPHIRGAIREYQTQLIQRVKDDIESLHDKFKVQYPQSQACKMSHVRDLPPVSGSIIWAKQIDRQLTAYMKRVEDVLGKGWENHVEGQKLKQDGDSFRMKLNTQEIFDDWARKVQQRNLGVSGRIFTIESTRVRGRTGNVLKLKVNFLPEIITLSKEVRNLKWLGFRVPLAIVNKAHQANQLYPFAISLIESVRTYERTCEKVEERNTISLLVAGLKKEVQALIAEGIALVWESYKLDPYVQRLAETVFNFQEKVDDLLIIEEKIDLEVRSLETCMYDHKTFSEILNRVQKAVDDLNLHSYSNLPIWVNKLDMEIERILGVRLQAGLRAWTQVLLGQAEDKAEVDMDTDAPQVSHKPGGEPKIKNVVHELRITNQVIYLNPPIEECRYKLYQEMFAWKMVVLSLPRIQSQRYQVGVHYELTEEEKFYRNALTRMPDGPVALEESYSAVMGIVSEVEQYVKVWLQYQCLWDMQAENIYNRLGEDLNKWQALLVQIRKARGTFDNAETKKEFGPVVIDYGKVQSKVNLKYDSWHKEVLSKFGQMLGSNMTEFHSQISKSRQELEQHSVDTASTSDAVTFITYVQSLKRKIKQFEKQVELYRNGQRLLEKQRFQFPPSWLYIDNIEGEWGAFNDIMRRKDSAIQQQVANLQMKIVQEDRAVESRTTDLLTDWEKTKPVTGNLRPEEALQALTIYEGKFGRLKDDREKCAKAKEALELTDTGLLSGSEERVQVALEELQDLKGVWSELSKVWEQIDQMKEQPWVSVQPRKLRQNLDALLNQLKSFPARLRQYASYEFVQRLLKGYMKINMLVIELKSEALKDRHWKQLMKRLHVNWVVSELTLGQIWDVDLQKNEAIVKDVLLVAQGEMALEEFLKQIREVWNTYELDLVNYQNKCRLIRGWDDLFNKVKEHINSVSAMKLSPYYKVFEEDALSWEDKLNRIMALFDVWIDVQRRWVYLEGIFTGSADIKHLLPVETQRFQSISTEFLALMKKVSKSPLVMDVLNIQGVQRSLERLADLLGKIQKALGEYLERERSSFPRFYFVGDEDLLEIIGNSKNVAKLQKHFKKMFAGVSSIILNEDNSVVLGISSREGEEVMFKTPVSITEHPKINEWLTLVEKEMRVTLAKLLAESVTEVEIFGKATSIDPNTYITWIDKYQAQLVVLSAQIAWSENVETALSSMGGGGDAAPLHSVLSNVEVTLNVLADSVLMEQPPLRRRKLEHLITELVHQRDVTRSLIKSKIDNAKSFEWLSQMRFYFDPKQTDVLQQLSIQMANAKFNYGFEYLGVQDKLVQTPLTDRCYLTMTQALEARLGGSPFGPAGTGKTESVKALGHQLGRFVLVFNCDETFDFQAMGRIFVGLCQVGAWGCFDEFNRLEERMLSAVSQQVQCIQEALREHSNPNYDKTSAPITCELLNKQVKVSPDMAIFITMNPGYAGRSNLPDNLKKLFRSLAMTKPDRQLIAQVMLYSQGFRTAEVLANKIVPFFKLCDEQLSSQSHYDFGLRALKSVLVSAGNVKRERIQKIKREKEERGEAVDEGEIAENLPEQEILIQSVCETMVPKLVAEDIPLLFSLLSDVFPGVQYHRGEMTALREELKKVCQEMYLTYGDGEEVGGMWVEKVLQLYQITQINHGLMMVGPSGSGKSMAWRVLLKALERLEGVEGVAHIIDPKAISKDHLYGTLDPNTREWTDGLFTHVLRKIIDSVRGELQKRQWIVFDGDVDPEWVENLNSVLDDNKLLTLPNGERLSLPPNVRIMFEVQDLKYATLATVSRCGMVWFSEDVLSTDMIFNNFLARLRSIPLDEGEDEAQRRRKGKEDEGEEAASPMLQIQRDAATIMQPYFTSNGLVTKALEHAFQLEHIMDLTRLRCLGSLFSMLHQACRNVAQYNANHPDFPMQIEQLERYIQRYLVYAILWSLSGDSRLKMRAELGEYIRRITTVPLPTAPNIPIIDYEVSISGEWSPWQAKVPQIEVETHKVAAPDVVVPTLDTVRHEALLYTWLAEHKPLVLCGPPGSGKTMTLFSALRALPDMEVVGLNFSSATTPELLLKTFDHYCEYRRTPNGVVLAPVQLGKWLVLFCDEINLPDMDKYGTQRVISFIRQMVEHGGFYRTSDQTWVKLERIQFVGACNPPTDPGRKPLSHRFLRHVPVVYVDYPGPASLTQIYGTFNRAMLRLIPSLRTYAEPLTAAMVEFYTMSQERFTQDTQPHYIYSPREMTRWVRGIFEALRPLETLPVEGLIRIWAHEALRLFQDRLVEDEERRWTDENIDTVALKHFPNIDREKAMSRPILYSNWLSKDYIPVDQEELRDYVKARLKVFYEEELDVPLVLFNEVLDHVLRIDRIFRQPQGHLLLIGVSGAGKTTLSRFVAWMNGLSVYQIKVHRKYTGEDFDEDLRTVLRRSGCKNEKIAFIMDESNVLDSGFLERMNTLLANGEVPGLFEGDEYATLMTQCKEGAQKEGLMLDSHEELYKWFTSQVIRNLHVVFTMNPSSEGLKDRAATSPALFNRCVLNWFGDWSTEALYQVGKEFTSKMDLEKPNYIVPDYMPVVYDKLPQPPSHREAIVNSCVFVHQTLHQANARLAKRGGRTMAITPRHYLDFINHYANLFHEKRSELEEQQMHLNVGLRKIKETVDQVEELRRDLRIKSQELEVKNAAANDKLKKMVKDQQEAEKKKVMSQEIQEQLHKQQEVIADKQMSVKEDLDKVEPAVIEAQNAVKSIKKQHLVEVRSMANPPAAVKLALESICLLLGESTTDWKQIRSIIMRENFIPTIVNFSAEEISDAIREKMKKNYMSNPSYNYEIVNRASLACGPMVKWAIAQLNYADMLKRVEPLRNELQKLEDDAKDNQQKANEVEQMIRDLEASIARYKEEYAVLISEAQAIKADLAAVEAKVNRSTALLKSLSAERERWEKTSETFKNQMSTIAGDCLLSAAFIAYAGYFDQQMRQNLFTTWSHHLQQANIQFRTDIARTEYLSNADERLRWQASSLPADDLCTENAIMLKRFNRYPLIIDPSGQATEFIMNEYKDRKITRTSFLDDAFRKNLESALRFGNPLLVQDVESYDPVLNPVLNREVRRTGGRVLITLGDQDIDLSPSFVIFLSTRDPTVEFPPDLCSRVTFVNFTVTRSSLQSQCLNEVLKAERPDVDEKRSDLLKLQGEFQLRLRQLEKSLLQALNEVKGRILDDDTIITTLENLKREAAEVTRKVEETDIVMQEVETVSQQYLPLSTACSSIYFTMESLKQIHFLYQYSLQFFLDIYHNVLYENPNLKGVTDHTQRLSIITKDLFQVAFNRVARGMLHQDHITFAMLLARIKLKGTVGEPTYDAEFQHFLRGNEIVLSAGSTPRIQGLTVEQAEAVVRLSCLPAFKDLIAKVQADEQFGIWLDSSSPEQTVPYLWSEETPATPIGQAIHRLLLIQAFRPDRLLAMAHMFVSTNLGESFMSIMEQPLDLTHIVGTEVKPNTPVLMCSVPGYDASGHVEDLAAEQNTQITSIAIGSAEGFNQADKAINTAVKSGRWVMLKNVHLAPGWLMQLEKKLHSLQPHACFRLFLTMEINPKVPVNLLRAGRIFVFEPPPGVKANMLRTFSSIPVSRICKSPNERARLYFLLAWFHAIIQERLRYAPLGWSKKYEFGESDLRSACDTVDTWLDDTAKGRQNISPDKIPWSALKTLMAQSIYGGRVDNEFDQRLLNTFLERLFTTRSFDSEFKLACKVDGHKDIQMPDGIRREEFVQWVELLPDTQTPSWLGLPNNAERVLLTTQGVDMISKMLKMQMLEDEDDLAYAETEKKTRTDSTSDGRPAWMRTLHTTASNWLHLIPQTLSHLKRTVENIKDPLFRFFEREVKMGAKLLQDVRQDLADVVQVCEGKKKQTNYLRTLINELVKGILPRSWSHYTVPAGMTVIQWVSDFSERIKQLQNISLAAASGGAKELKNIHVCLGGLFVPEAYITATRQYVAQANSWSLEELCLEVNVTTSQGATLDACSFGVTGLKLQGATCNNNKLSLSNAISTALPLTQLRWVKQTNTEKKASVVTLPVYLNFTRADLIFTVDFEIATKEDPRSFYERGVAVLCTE

HaloTag-Lis1 (human full-length Lis1, PAFAH1B1) (from UniProt P43034 1-410) (natural protein)
percent of dynein runs that comigrated with Lis1: 16.8%
